Laboratory results published in paper PMC5430804, “Structural and biochemical insights of CypA and AIF interaction” (Scientific Reports, 2017).
Blank lines part the entries; values can stand above or below the compound they belong to. *: point of attachment. Dabcyl = CN(C)c1ccc(N=Nc2ccc(C(=O)*)cc2)cc1; EDANS = O=S(=O)(O)c1cccc2c(NCCN*)cccc12

What was measured:
[1] = biological target: T1, AIF(370-394) (Homo sapiens, UniProt O95831); experiment: EnSpire label-free direct binding to AIF(370-394); conditions: for KD: Corning Epic/EnSpire label-free, biotinylated AIF(370-394) immobilized on streptavidin-coated biosensor, PBS 1X pH 7.4, readings over 1 hour, means of triplicates; for binding / affinity for AIF(370-394), in words: EnSpire label-free
T1 construct: host or cells: chemical synthesis (synthetic peptide)
T1 sequence (O95831 370-394 limits assumed): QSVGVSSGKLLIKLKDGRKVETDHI
Method: Although peptide-peptide interaction insights might be prejudiced by the lack of appropriate 3D structures and require additional experimental assessment with full length proteins, they can mimic and anticipate in several cases real interactions. […] KD values determined by this approach are reported in Table 1 and the binding curves are shown in Supplementary Fig. S4.
(§1) Direct binding assays were performed with the Corning Epic label-free technology with the EnSpire Multimode Plate Reader (PerkinElmer, Rodgau, Germany) as reported in literature.1 Briefly, […]
(§2) µg/mL streptavidin solution in 20 mM sodium acetate at pH 4.0, for 16 h at 4 °C. The microplate was subsequently washed three times with phosphate-buffered saline (PBS 1X, pH 7.4). After […]
(§3) assay buffer (PBS 1X, pH 7.4) for 2 hours followed by three washing steps in PBS 1X at pH 7.4.
(§4) After 2 h incubation, a baseline reading was recorded. Then 30 µL of peptide samples were dispensed in the plate. The final readings were taken over a period of 1 hour. Label-free responses were measured as shifts in reflected wavelength and were expressed in picometers (Fig. S4). The difference between the last baseline measurements and the maximum signal was used to determine the KD values (Table 1 in the main text). […]
(§5) biosensor by adding directly 100 µg/mL of protein in 20 mM sodium acetate pH 4.0, for 16 h at 4 […]
(§6) by adding 200 µg/mL of protein in 20 mM sodium acetate pH 5.5, for 16 h at 4 °C. […]
(§7) the procedure described above. Results were analyzed using the EnSpire label-free user interface software. Plots were generated using GraphPad PrismR V-5.01 (GraphPad Software, La Jolla, CA). […]
Graphs were generated using GraphPad PrismR V-5.01 (GraphPad Software, La Jolla, CA). Results are means of triplicates.
(§8) (1 picture or pasted object on this page, not shown here)

[2] = system: CypA and CypA^R55A; experiment: EnSpire label-free binding of AIF to immobilized CypA and CypA^R55A; conditions: CypA and CypAR55A immobilized, means of triplicates
Method: as §1, §2, §3, §4
biosensor by adding directly 100 µg/mL of protein in 20 mM sodium acetate pH 4.0, for 16 h at 4 °C (Fig. S5). […]
the procedure described above. Results were analyzed using the EnSpire label-free user interface software. […]
coated with CypA wild type with and without the CsA. Results were analyzed using the EnSpire label-free user interface software. […]
(B). Results were analyzed using the EnSpire label-free user interface software. […]

[3] = biological target: AIF(Δ1-121) (Homo sapiens, UniProt O95831); experiment: EnSpire label-free direct binding to AIF(Δ1-121); conditions: for KD: Corning Epic/EnSpire label-free, AIF(Δ1-121) immobilized on biosensor (100 µg/mL, 20 mM sodium acetate pH 4.0), PBS 1X pH 7.4, readings over 1 hour, means of triplicates
AIF(Δ1-121), sequence (O95831 122-613, stated change not applied): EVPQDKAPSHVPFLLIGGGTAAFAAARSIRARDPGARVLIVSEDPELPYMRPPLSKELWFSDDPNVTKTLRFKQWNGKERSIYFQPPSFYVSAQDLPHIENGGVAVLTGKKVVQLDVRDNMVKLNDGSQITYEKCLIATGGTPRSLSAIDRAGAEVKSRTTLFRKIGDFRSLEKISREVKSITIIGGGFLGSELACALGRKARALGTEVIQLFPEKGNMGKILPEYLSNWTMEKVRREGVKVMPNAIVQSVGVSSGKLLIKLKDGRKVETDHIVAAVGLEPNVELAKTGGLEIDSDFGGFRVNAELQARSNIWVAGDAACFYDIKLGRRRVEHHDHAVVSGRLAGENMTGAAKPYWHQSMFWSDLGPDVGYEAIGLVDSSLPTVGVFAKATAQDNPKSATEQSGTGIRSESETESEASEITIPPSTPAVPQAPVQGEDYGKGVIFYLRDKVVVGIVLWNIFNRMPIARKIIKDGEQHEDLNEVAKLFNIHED
Method: as §1, §2, §3, §4, §5, §6, §7
Results were analyzed using the EnSpire label-free user interface software. Graphs were generated using GraphPad PrismR V-5.01 (GraphPad Software, La Jolla, CA). Results are means of triplicates.
as §8

[4] = biological target: T2, CypA (Homo sapiens, UniProt P62937); experiment: Fluorescence quenching binding of FRET substrate; conditions: excitation 340 nm, emission 510 nm
T2 construct: His tag (6His); made in house
T2 sequence (P62937 whole entry): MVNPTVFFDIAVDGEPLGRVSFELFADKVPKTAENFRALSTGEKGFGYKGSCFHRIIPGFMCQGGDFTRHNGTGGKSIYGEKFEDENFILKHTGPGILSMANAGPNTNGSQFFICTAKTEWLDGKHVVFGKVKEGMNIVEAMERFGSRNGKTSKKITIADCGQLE
From the text: probe clusters) and CS003 (11 probe clusters), CS004 (7 probe clusters), CS005 (4 probe clusters), CS006 (4 probe clusters) and CS007 (4 probe clusters), CS008 (3 probe clusters), CS009 (2 probe clusters). The top scoring ligand-binding site identified by FTMap on CypA is the active site, while the second, CS001 (Figure S7) is constituted by loops connecting α1-β3 (G42-C52) and a portion of the loop connecting β4-β5 (G65-S99), close to the catalytic site of CypA within the same interaction surface identified by NMR studies and mapped by trypsin MS-based foot-printing and contains 19 probe clusters. […]
Fluorescence-based assays
Fluorescence quenching assays were performed using the FRET substrate Ac-EK(Dabcyl)PPFAE(EDANS)KA-NH2 (MW 1556.2 amu) reported in literature.6 At 0.23 ng/μL (0.15 μM) the substrate provides a significant fluorescence emission at 510 nm compared to the buffers used in the assay (PBS 1X) (Figure S8A). […] Kinetic constants were determined by fitting data of fluorescence maxima at 510 nm of EDANS upon protein additions. […]
(Fig. S8B, red and blue lines, respectively) on the CypA/substrate complex formation were determined using a 10-fold excess (1.5 μM) of compounds. […]
Figure S8. Binding assay based on fluorescence quenching. (A) Fluorescence emission spectrum of CypA substrate. Samples were excited at 340 nm, and the emission in the range of 450-600 nm was measured. […]

[5] = system: CypA-CsA preformed complex; experiment: ITC competition: AIF(370-394) titrated onto CypA-CsA preformed complex; assay type: binding; conditions: AIF(370-394) 5 to 500 μM titrated onto CypA-CsA complex, 25 °C
Method: Figure 5 ITC binding assay. […] The bottom panels show the integrated heat of each injection after correction for the heat of dilution of ligands. Curves represent the best fit to a single-site binding model. (C, D) ITC competition assays.
ITC experiments were performed at 25 °C using a MicroCal ITC200 (GE Healthcare Bio-Sciences AB, Sweden). Protein and peptide samples were dialyzed in phosphate saline buffer (PBS 1X) containing 1 mM DTT, pH 7.4. […] Data were analyzed using the “Origin” software (MicroCal). The dissociation constant (KD), molar binding stoichiometry (n) and the binding enthalpy (ΔH), entropy (ΔS) and Gibbs free energy (ΔG) were determined by fitting the binding isotherm to a one-site model with MicroCal Origin software. All ITC experiments were performed in triplicate.

[6] = system: AIF(Δ1-121)/CypA complex; parameters: method as in PMID 24434516; conditions: cited from earlier work
[7] = system: CypA/CsA complex; experiment: NMR competition with preformed CypA/CsA complex; assay type: binding; conditions: AIF(370-394) gradually added to preformed CypA/CsA complex
[8] = biological target: T2, CypA; conditions: binding to CypA; cited from earlier work
From the text: CSPs were quantified in terms of ΔδHNavs and classified as strong, medium and weak (see Methods section for details).

[9] = system: neuronal cells; parameters: method as in PMID 24434516; conditions: cited from earlier work
[10] = system: CypA and CypA^R55A; experiment: Competition of CypA/substrate complex formation (fluorescence quenching); assay type: binding
From the text: Results are means of triplicates.
as §8

- KD [3]: No binding
- KD [1]: No binding
- binding / affinity for AIF(370-394), in words [1]: did not interact with AIF(370-394)
Compound: CypA(136-150): CypA-derived synthetic peptide, residues 136-150 (MNIVEAMERFGSRNG)

- KD [3]: No binding
- KD [1]: No binding
Compound: CypA(83-90): CypA-derived synthetic peptide, residues 83-90 (FEDENFIL)

- KD [3]: No binding
- KD [1]: No binding
- binding / affinity for AIF(370-394), in words [1]: did not interact with AIF(370-394)
Compound: CypA(154-165): CypA-derived synthetic peptide, residues 154-165 (KKITIADCGQLE)

- KD [1]: No binding
Compound: CypA(55-69)R69: CypA(55-69) with R69 replaced by alanine (RIIPGFMCQGGDFTA)
- binding / affinity for AIF(Δ1-121), in words ([3]; EnSpire label-free): completely abrogated the binding to both the AIF forms
- binding / affinity for AIF(370-394), in words [1]: completely abrogated the binding to both the AIF forms

The next lines start with the compound.

Compound: CypA wild type: His-tagged CypA protein
- Kd ([1]; full-length protein: CypA / CypAR55A immobilized (200 µg/mL, sodium acetate pH 5.5), AIF(370-394) added at several concentrations, means of triplicates (Fig. S7A)): 3000 ± 600 nM

Compound: AIF(Δ1-121): apoptogenic (pro-apoptotic) form of AIF
- binding to CypA versus CypA^R55A [2]: bound CypA and CypA^R55A in a similar way

Compound: Ac-EK(Dabcyl)PPFAE(EDANS)KA-NH2 (SMILES CC(=O)N[C@@H](CCC(=O)O)C(=O)N[C@@H](CCCCNC(=O)c1ccc(N=Nc2ccc(N(C)C)cc2)cc1)C(=O)N1CCC[C@H]1C(=O)N1CCC[C@H]1C(=O)N[C@@H](Cc1ccccc1)C(=O)N[C@@H](C)C(=O)N[C@@H](CCC(=O)NCCNc1cccc2c(S(=O)(=O)O)cccc12)C(=O)N[C@@H](CCCCN)C(=O)N[C@@H](C)C(N)=O) [CypA substrate, FRET substrate of CypA, MW 1556.2 amu]
- Δfluorescence emission vs buffer [4]: 319 a. u.

Compound: CC[C@H](C)[C@H](NC(=O)[C@H](Cc1c[nH]cn1)NC(=O)[C@H](CC(=O)O)NC(=O)[C@@H](NC(=O)[C@H](CCC(=O)O)NC(=O)[C@@H](NC(=O)[C@H](CCCCN)NC(=O)[C@H](CCCNC(=N)N)NC(=O)CNC(=O)[C@H](CC(=O)O)NC(=O)[C@H](CCCCN)NC(=O)[C@H](CC(C)C)NC(=O)[C@H](CCCCN)NC(=O)[C@@H](NC(=O)[C@H](CC(C)C)NC(=O)[C@H](CC(C)C)NC(=O)[C@H](CCCCN)NC(=O)CNC(=O)[C@H](CO)NC(=O)[C@H](CO)NC(=O)[C@@H](NC(=O)CNC(=O)[C@@H](NC(=O)[C@H](CO)NC(=O)[C@H](CCC(N)=O)NC(C)=O)C(C)C)C(C)C)[C@@H](C)CC)C(C)C)[C@@H](C)O)C(N)=O [AIF(370-394)]
- heat exchange [5]: no apparent heat exchange was observed
- inhibition of AIF(Δ1-121)/CypA complex formation in vitro [6]: able to inhibit the AIF(Δ1-121)/CypA complex formation in vitro
- AIF(370-394) interaction with CypA after CsA binding [7]: CsA binding to CypA did not fully abrogate the AIF(370-394) interaction with CypA
- KD, in words [8]: low micromolar range
- neuroprotection ([9]; AIF(Δ1-121)/CypA-mediated glutamate-induced cell death): pronounced neuroprotection
- nuclear translocation of AIF and CypA [9]: blocking the nuclear translocation of the two proteins
- effect on CypA and CypA^R55A binding to substrate ([10]; 10-fold excess (1.5 μM) of compound, fluorescence quenching, 510 nm, triplicates): unable to prevent the binding of both CypA and CypA^R55A to the substrate
- effect on enzyme-substrate recognition ([10]; larger excess of AIF(370-394), not shown): does impair the enzyme-substrate recognition
- binding to CypA versus CypA^R55A [2]: bound CypA and CypA^R55A in a similar way
